The values below come from US20160185836A1 (published 2016).

In assay [1] the target is T1, activin A (UniProt P08476 311-426).
T1 sequence (looked up): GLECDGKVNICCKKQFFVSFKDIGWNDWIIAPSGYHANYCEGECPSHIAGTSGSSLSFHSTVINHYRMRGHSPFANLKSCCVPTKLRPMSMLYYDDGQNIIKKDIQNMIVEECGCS
As to the kind of experiment: cell-based or functional assay.

In assay [2] the target is T2, GDF11 (UniProt O95390 299-407).
T2 sequence (looked up): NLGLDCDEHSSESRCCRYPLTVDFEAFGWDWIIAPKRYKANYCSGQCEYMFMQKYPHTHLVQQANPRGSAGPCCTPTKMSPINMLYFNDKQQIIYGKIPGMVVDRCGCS
Briefly: cell-based or functional assay.

In assay [3] the target is T1, activin A. As to the kind of experiment: binding assay, method not stated.
Assay [4] concerns the target T2, GDF11. Briefly: binding assay, method not stated.

B1: FST(315)-IgG2 (Fc fusion)
chain: GNCWLRQAKNGRCQVLYKTELSKEECCSTGRLSTSWTEEDVNDNTLFKWMIFNGGAPNCIPCKETCENVDCGPGKKCRMNKKNKPRCVCAPDCSNITWKGPVCGLDGKTYRNECALLKARCKEQPELEVQYQGRCKKTCRDVFCPGSSTCVVDQTNNAYCVTCNRICPEPASSEQYLCGNDGVTYSSACHLRKATCLLGRSIGLAYEGKCIKAKSCEDIQCTGGKKCLWDFKVGRGRCSLCDELCPDSKSDEPVCASDNATYASECAMKEAACSSGVLLEVKHSGSCNSISEDTEEEEEDEDQDYSFPISSILEWTGGGVECPPCPAPPVAGPSVFLFPPKPKDTLMISRTPEVTCVVVDVSHEDPEVQFNWYVDGVEVHNAKTKPREEQFNSTFRVVSVLTVVHQDWLNGKEYKCKVSNKGLPAPIEKTISKTKGQPREPQVYTLPPSREEMTKNQVSLTCLVKGFYPSDIAVEWESNGQPENNYKTTPPMLDSDGSFFLYSKLTVDKSRWQQGNVFSCSVMHEALHNHYTQKSLSLSPGK
notes: Expressed with the follistatin leader in HEK-293 or CHO cells; also called mature FST(315)-IgG2
B1: the “IC50 (ng/ml), A-204 Reporter Gene Assay” value in assay [1] stood at 10 ng/mL; in assay [2] it was 15 ng/mL. The dissociation constant (Kd) in assay [3] and in assay [4] was under 0.01 nM throughout.

B2: FST(284)-IgG2 (Fc fusion)
chain: GNCWLRQAKNGRCQVLYKTELSKEECCSTGRLSTSWTEEDVNDNTLFKWMIFNGGAPNCIPCKETCENVDCGPGKKCRMNKKNKPRCVCAPDCSNITWKGPVCGLDGKTYRNECALLKARCKEQPELEVQYQGRCKKTCRDVFCPGSSTCVVDQTNNAYCVTCNRICPEPASSEQYLCGNDGVTYSSACHLRKATCLLGRSIGLAYEGKCIKAKSCEDIQCTGGKKCLWDFKVGRGRCSLCDELCPDSKSDEPVCASDNATYASECAMKEAACSSGVLLEVKHSTGGGVECPPCPAPPVAGPSVFLFPPKPKDTLMISRTPEVTCVVVDVSHEDPEVQFNWYVDGVEVHNAKTKPREEQFNSTFRVVSVLTVVHQDWLNGKEYKCKVSNKGLPAPIEKTISKTKGQPREPQVYTLPPSREEMTKNQVSLTCLVKGFYPSDIAVEWESNGQPENNYKTTPPMLDSDGSFFLYSKLTVDKSRWQQGNVFSCSVMHEALHNHYTQKSLSLSPGK
As for B2, the figures for the IC50 (ng/ml), A-204 Reporter Gene Assay in assay [1] and in assay [2] were 369 ng/mL and 123 ng/mL, respectively.

B3: FST(303)-IgG2 (Fc fusion)
chain: GNCWLRQAKNGRCQVLYKTELSKEECCSTGRLSTSWTEEDVNDNTLFKWMIFNGGAPNCIPCKETCENVDCGPGKKCRMNKKNKPRCVCAPDCSNITWKGPVCGLDGKTYRNECALLKARCKEQPELEVQYQGRCKKTCRDVFCPGSSTCVVDQTNNAYCVTCNRICPEPASSEQYLCGNDGVTYSSACHLRKATCLLGRSIGLAYEGKCIKAKSCEDIQCTGGKKCLWDFKVGRGRCSLCDELCPDSKSDEPVCASDNATYASECAMKEAACSSGVLLEVKHSGSCNSISEDTEEEEEDEDQTGGGVECPPCPAPPVAGPSVFLFPPKPKDTLMISRTPEVTCVVVDVSHEDPEVQFNWYVDGVEVHNAKTKPREEQFNSTFRVVSVLTVVHQDWLNGKEYKCKVSNKGLPAPIEKTISKTKGQPREPQVYTLPPSREEMTKNQVSLTCLVKGFYPSDIAVEWESNGQPENNYKTTPPMLDSDGSFFLYSKLTVDKSRWQQGNVFSCSVMHEALHNHYTQKSLSLSPGK
In the case of B3, the results for the IC50 (ng/ml), A-204 Reporter Gene Assay in assay [1] and in assay [2] were 2 ng/mL and 18 ng/mL, respectively.

B4: FST(291)-IgG2 (Fc fusion)
chain: GNCWLRQAKNGRCQVLYKTELSKEECCSTGRLSTSWTEEDVNDNTLFKWMIFNGGAPNCIPCKETCENVDCGPGKKCRMNKKNKPRCVCAPDCSNITWKGPVCGLDGKTYRNECALLKARCKEQPELEVQYQGRCKKTCRDVFCPGSSTCVVDQTNNAYCVTCNRICPEPASSEQYLCGNDGVTYSSACHLRKATCLLGRSIGLAYEGKCIKAKSCEDIQCTGGKKCLWDFKVGRGRCSLCDELCPDSKSDEPVCASDNATYASECAMKEAACSSGVLLEVKHSGSCNSISTGGGVECPPCPAPPVAGPSVFLFPPKPKDTLMISRTPEVTCVVVDVSHEDPEVQFNWYVDGVEVHNAKTKPREEQFNSTFRVVSVLTVVHQDWLNGKEYKCKVSNKGLPAPIEKTISKTKGQPREPQVYTLPPSREEMTKNQVSLTCLVKGFYPSDIAVEWESNGQPENNYKTTPPMLDSDGSFFLYSKLTVDKSRWQQGNVFSCSVMHEALHNHYTQKSLSLSPGK
notes: Expressed with the follistatin leader in HEK-293 or CHO cells; also called mature FST(291)-IgG2
Take B4: the “IC50 (ng/ml), A-204 Reporter Gene Assay” value in assay [1] stood at 20 ng/mL; in assay [2], 26 ng/mL. Moreover, the dissociation constant (Kd) in assay [3] and in assay [4] was under 0.01 nM throughout.

B5: FST(288)-IgG2 (Fc fusion)
chain: GNCWLRQAKNGRCQVLYKTELSKEECCSTGRLSTSWTEEDVNDNTLFKWMIFNGGAPNCIPCKETCENVDCGPGKKCRMNKKNKPRCVCAPDCSNITWKGPVCGLDGKTYRNECALLKARCKEQPELEVQYQGRCKKTCRDVFCPGSSTCVVDQTNNAYCVTCNRICPEPASSEQYLCGNDGVTYSSACHLRKATCLLGRSIGLAYEGKCIKAKSCEDIQCTGGKKCLWDFKVGRGRCSLCDELCPDSKSDEPVCASDNATYASECAMKEAACSSGVLLEVKHSGSCNTGGGVECPPCPAPPVAGPSVFLFPPKPKDTLMISRTPEVTCVVVDVSHEDPEVQFNWYVDGVEVHNAKTKPREEQFNSTFRVVSVLTVVHQDWLNGKEYKCKVSNKGLPAPIEKTISKTKGQPREPQVYTLPPSREEMTKNQVSLTCLVKGFYPSDIAVEWESNGQPENNYKTTPPMLDSDGSFFLYSKLTVDKSRWQQGNVFSCSVMHEALHNHYTQKSLSLSPGK
notes: Expressed with the follistatin leader in HEK-293 or CHO cells; also called mature FST(288)-IgG2
As to B5, the “IC50 (ng/ml), A-204 Reporter Gene Assay” value stood at 30 ng/mL in assay [1] and 41 ng/mL in assay [2]. For the same molecule, the Kd in assay [3] and in assay [4] was under 0.01 nM in each case.

B6: FST(278)-IgG2 (Fc fusion)
chain: GNCWLRQAKNGRCQVLYKTELSKEECCSTGRLSTSWTEEDVNDNTLFKWMIFNGGAPNCIPCKETCENVDCGPGKKCRMNKKNKPRCVCAPDCSNITWKGPVCGLDGKTYRNECALLKARCKEQPELEVQYQGRCKKTCRDVFCPGSSTCVVDQTNNAYCVTCNRICPEPASSEQYLCGNDGVTYSSACHLRKATCLLGRSIGLAYEGKCIKAKSCEDIQCTGGKKCLWDFKVGRGRCSLCDELCPDSKSDEPVCASDNATYASECAMKEAACSSGVLTGGGVECPPCPAPPVAGPSVFLFPPKPKDTLMISRTPEVTCVVVDVSHEDPEVQFNWYVDGVEVHNAKTKPREEQFNSTFRVVSVLTVVHQDWLNGKEYKCKVSNKGLPAPIEKTISKTKGQPREPQVYTLPPSREEMTKNQVSLTCLVKGFYPSDIAVEWESNGQPENNYKTTPPMLDSDGSFFLYSKLTVDKSRWQQGNVFSCSVMHEALHNHYTQKSLSLSPGK
In the case of B6, the IC50 (ng/ml), A-204 Reporter Gene Assay in assay [1] was 521 ng/mL; in assay [2] it was 91 ng/mL.

In general, Kd refers to the constant that tells how readily two partners part at equilibrium. A lower Kd goes with tighter binding.
